Drawing on publication PMC10702477, this text covers Km and kcat for one protein.

Substrate in data set [1]: O=c1cc(-c2ccccc2)c2c(O)cc(O)cc2o1
Kind of data set: RP-HPLC product/acceptor peak ratio, Michaelis-Menten fit. The following applies: 500 μM UDP-Glc, 50 mM TBT buffer at optimal pH, 293 K; product 7-O-Glc; 20.0 °C. The format is biochemical, Arabidopsis thaliana.

Substrate in data set [2]: Cc1cc(=O)oc2cc(O)cc(O)c12
The data set is described as above. The format is biochemical, Arabidopsis thaliana. Particulars: 500 μM UDP-Glc, 50 mM TBT buffer at optimal pH, 293 K; product 5-O-Glc; 20.0 °C.

B1: AtUGT78D2 (Arabidopsis thaliana) (protein)
chain: MTKPSDPTRDSHVAVLAFPFGTHAAPLLTVTRRLASASPSTVFSFFNTAQSNSSLFSSGDEADRPANIRVYDIADGVPEGYVFSGRPQEAIELFLQAAPENFRREIAKAETEVGTEVKCLMTDAFFWFAADMATEINASWIAFWTAGANSLSAHLYTDLIRETIGVKEVGERMEETIGVISGMEKIRVKDTPEGVVFGNLDSVFSKMLHQMGLALPRATAVFINSFEDLDPTLTNNLRSRFKRYLNIGPLGLLSSTLQQLVQDPHGCLAWMEKRSSGSVAYISFGTVMTPPPGELAAIAEGLESSKVPFVWSLKEKSLVQLPKGFLDRTREQGIVVPWAPQVELLKHEATGVFVTHCGWNSVLESVSGGVPMICRPFFGDQRLNGRAVEVVWEIGMTIINGVFTKDGFEKCLDKVLVQDDGKKMKCNAKKLKELAYEAVSSKGRSSENFRGLLDAVVNII
A word on the Km: it is the substrate concentration at which the rate is half of its maximum. For orientation: kcat means the maximal rate divided by the concentration of active sites. As for B1, in data set [1], the Michaelis-Menten constant (Km) stood at 28.9 ± 4.8 µM and the kcat stood at 0.132 ± 0.00667 s⁻¹. For the same protein, in data set [2], the Km was 34.4 ± 4.3 µM and the kcat was 0.932 ± 0.04 s⁻¹.
